Data from paper PMC9482650, “Quantitative fragmentomics allow affinity mapping of interactomes” (Nature Communications, 2022).

Legend:
Assay in all cases: holdup assay
Design in all cases: key: below the threshold = too weak to quantify, mostly under pKd 3.1 to 4
[1] = target: T1, APBA2_1, Q99767
T1 sequence (Q99767 563-664, limits assumed, looked up): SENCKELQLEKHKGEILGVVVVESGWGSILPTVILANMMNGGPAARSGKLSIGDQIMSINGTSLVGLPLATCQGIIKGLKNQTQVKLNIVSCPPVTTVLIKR

[2] = target: T2, APBA3_1, O96018
T2 sequence (O96018 389-490, limits assumed, looked up): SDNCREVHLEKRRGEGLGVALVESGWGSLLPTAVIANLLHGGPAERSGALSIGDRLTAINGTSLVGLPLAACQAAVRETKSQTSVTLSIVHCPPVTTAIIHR

[3] = target: T3, ARHGEF11, O15085
T3 sequence (O15085 42-136, limits assumed, looked up): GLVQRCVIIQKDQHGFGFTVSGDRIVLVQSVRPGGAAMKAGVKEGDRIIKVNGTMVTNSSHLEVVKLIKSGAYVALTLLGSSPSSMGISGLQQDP

[4] = target: ARHGEF12, Q9NZN5-2
[5] = target: T4, CARD11, Q9BXL7
T4 sequence (Q9BXL7 662-765, limits assumed, looked up): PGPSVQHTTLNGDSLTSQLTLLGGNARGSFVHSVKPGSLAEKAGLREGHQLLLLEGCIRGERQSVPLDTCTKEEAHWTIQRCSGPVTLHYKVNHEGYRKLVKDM

[6] = target: CASK, O14936
[7] = target: DLG5_1, Q8TDM6
[8] = target: T5, DVL3, Q92997
T5 sequence (Q92997 244-331, limits assumed, looked up): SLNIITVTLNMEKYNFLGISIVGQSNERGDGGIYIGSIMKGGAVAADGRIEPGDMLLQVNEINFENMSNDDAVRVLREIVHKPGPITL

[9] = target: T6, FRMPD1, Q5SYB0
T6 sequence (Q5SYB0 52-145, limits assumed, looked up): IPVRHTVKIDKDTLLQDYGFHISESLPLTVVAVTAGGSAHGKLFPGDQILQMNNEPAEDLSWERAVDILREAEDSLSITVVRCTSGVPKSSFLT

[10] = target: T7, GRIP1_2, Q9Y3R0
T7 sequence (Q9Y3R0 145-248, limits assumed, looked up): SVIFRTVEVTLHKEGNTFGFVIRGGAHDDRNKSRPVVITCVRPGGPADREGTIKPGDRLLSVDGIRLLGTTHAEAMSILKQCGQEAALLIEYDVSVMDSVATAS

[11] = target: GRIP2_3, Q9C0E4
[12] = target: GRIP2_6, Q9C0E4
[13] = target: HTRA2, O43464
[14] = target: IL16_1, Q14005
[15] = target: Inadl_6, Q8NI35
[16] = target: MAGI2_6, Q86UL8
[17] = target: T8, MPP6, Q9NZW5
T8 sequence (Q9NZW5 125-219, limits assumed, looked up): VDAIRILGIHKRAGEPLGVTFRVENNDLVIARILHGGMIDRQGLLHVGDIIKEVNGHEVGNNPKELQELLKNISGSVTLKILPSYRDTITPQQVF

[18] = target: T9, NHERF3_1, Q5T2W1
T9 sequence (Q5T2W1 4-100, limits assumed, looked up): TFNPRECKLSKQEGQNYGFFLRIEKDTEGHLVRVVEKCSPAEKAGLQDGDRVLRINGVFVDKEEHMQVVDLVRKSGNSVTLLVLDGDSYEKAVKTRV

[19] = target: NHERF4_2, Q86UT5
[20] = target: NOS1, P29475
[21] = target: T10, PCLO, Q9Y6V0
T10 sequence (Q9Y6V0 4491-4600, limits assumed, looked up): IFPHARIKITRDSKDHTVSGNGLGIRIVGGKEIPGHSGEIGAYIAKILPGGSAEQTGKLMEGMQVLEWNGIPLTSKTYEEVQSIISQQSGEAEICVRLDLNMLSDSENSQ

[22] = target: PICK1, Q9NRD5
[23] = target: T11, SNTA1, Q13424
T11 sequence (Q13424 82-180, limits assumed, looked up): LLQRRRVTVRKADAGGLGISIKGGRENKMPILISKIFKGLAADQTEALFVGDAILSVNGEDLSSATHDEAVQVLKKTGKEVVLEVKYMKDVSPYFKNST

[24] = target: T12, TIAM2, Q8IVF5
T12 sequence (Q8IVF5 885-986, limits assumed, looked up): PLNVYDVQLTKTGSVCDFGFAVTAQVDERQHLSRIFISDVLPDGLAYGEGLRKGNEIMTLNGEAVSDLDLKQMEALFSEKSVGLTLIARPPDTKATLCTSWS

[25] = target: T13, TJP3_3, O95049
T13 sequence (O95049 375-456, limits assumed, looked up): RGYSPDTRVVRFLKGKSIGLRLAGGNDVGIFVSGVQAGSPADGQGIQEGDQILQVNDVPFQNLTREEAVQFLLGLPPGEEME

[26] = plain residues with an end cap or a label only (N-terminal biotin on a linker: ado-ado)
[27] = plain residues with an end cap or a label only (N-terminal biotin on a linker: (peg)3)

Sequence of NOS1, P29475 (P29475 9-101): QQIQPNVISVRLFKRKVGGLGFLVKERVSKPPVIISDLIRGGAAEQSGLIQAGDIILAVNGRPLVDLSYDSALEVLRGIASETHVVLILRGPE
Sequence of IL16_1, Q14005 (Q14005 210-306): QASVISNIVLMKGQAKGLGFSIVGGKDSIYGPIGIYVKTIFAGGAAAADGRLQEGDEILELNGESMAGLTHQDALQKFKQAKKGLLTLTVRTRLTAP
Sequence of MAGI2_6, Q86UL8 (Q86UL8 1141-1229): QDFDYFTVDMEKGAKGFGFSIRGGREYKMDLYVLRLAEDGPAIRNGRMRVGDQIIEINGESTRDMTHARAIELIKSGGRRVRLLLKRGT
Sequence of PICK1, Q9NRD5 (Q9NRD5 17-115): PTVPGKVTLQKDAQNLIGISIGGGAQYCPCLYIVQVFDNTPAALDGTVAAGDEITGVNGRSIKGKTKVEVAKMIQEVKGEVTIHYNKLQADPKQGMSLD
Sequence of ARHGEF12, Q9NZN5-2 (Q9NZN5 other isoform, or with tags, fused parts or gaps): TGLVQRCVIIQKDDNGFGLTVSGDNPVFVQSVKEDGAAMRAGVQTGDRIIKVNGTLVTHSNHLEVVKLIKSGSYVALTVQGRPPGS
Sequence of DLG5_1, Q8TDM6 (Q8TDM6 617-713): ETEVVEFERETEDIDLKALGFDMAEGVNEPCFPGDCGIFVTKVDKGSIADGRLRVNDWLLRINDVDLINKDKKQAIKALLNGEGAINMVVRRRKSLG
Sequence of GRIP2_6, Q9C0E4 (Q9C0E4 648-740): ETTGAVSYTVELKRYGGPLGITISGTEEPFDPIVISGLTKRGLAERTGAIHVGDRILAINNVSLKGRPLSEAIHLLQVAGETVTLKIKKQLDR
Sequence of Inadl_6, Q8NI35 (Q8NI35 1058-1167): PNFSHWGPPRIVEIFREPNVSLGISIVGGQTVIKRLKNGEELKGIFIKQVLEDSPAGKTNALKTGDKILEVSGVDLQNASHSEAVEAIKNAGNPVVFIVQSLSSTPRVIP
Sequence of GRIP2_3, Q9C0E4 (Q9C0E4 238-339): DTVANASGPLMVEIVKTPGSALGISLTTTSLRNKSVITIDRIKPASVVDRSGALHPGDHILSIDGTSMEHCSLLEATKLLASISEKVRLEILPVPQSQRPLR
Sequence of HTRA2, O43464 (O43464 355-458): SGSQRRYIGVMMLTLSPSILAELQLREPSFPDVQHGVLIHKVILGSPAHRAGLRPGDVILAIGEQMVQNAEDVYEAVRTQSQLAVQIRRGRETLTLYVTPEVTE
Sequence of CASK, O14936 (O14936 487-570): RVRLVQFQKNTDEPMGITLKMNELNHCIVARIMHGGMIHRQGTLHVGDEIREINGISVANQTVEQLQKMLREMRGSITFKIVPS
Sequence of NHERF4_2, Q86UT5 (Q86UT5 220-308): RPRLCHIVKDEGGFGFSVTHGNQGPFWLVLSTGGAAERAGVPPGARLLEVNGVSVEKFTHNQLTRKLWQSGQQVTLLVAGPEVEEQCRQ

Question: With LTAQEQPVYI [APBA1, Q02410] as the binder, how does the pKd [1, 26] read?
Answer: The pKd was “below the threshold”.

Question: What about the pKd [2, 26] of the same binder?
Answer: Its pKd is “below the threshold”.

Question: And the pKd [3, 26]?
Answer: Its pKd is 4.21.

Question: And the pKd [4, 26]?
Answer: The pKd was “below the threshold”.

Question: What about the pKd [5, 26] of the same binder?
Answer: Its pKd is “below the threshold”.

Question: And the pKd [6, 26]?
Answer: The pKd was “below the threshold”.

Question: And the pKd [7, 26]?
Answer: Its pKd is “below the threshold”.

Question: What about the pKd [8, 26] of the same binder?
Answer: The pKd was 3.87.

Question: And the pKd [9, 26]?
Answer: Its pKd is “below the threshold”.

Question: What about the pKd [10, 26] of the same binder?
Answer: Its pKd is “below the threshold”.

Question: And the pKd [11, 26]?
Answer: The pKd was “below the threshold”.

Question: And the pKd [12, 26]?
Answer: The pKd was “below the threshold”.

Question: What about the pKd [13, 26] of the same binder?
Answer: Its pKd is 3.53.

Question: And the pKd [14, 26]?
Answer: Its pKd is “below the threshold”.

Question: And the pKd [15, 26]?
Answer: Its pKd is “below the threshold”.

Question: What about the pKd [16, 26] of the same binder?
Answer: Its pKd is “below the threshold”.

Question: What about the pKd [17, 26] of the same binder?
Answer: Its pKd is “below the threshold”.

Question: What about the pKd [18, 26] of the same binder?
Answer: The pKd was “below the threshold”.

Question: And the pKd [19, 26]?
Answer: Its pKd is “below the threshold”.

Question: And the pKd [20, 26]?
Answer: Its pKd is 4.07.

Question: And the pKd [21, 26]?
Answer: The pKd was “below the threshold”.

Question: And the pKd [22, 26]?
Answer: Its pKd is “below the threshold”.

Question: What about the pKd [23, 26] of the same binder?
Answer: Its pKd is “below the threshold”.

Question: What about the pKd [24, 26] of the same binder?
Answer: The pKd was 4.01.

Question: What about the pKd [25, 26] of the same binder?
Answer: The pKd was 3.67.

Question: Which pKd [1, 26] does the source give for RTQSSDSAYV [GJD2, Q9UKL4] here?
Answer: Its pKd is “below the threshold”.

Question: And the pKd [2, 26]?
Answer: The pKd was “below the threshold”.

Question: What about the pKd [3, 26] of the same binder?
Answer: The pKd was 4.21.

Question: What about the pKd [4, 26] of the same binder?
Answer: The pKd was 4.35.

Question: And the pKd [5, 26]?
Answer: The pKd was “below the threshold”.

Question: What about the pKd [6, 26] of the same binder?
Answer: Its pKd is “below the threshold”.

Question: What about the pKd [7, 26] of the same binder?
Answer: The pKd was “below the threshold”.

Question: And the pKd [8, 26]?
Answer: The pKd was 3.48.

Question: What about the pKd [9, 26] of the same binder?
Answer: The pKd was “below the threshold”.

Question: What about the pKd [10, 26] of the same binder?
Answer: The pKd was “below the threshold”.

Question: What about the pKd [11, 26] of the same binder?
Answer: The pKd was “below the threshold”.

Question: And the pKd [12, 26]?
Answer: Its pKd is “below the threshold”.

Question: And the pKd [13, 26]?
Answer: The pKd was “below the threshold”.

Question: And the pKd [14, 26]?
Answer: Its pKd is “below the threshold”.

Question: And the pKd [15, 26]?
Answer: Its pKd is “below the threshold”.

Question: What about the pKd [16, 26] of the same binder?
Answer: The pKd was 3.58.

Question: And the pKd [17, 26]?
Answer: Its pKd is “below the threshold”.

Question: And the pKd [18, 26]?
Answer: The pKd was 4.95.

Question: What about the pKd [19, 26] of the same binder?
Answer: The pKd was “below the threshold”.

Question: What about the pKd [20, 26] of the same binder?
Answer: Its pKd is 3.95.

Question: And the pKd [21, 26]?
Answer: Its pKd is “below the threshold”.

Question: What about the pKd [22, 26] of the same binder?
Answer: The pKd was “below the threshold”.

Question: What about the pKd [23, 26] of the same binder?
Answer: The pKd was “below the threshold”.

Question: What about the pKd [24, 26] of the same binder?
Answer: The pKd was “below the threshold”.

Question: What about the pKd [25, 26] of the same binder?
Answer: Its pKd is 3.71.

Question: What does the source list for YDEPTTTTSVPL [SARS-Cov2-3a, P0DTC3]?
Answer: pKd [1, 27]: below the threshold; pKd [2, 27]: below the threshold; pKd [3, 27]: below the threshold; pKd [4, 27]: below the threshold; pKd [5, 27]: below the threshold; pKd [6, 27]: below the threshold; pKd [7, 27]: below the threshold; pKd [8, 27]: below the threshold; pKd [9, 27]: below the threshold; pKd [10, 27]: below the threshold; pKd [11, 27]: below the threshold; pKd [12, 27]: below the threshold; pKd [13, 27]: below the threshold; pKd [14, 27]: below the threshold; pKd [15, 27]: below the threshold; pKd [16, 27]: below the threshold; pKd [17, 27]: below the threshold; pKd [18, 27]: 3.92; pKd [19, 27]: below the threshold; pKd [20, 27]: below the threshold; pKd [21, 27]: below the threshold; pKd [22, 27]: below the threshold; pKd [23, 27]: below the threshold; pKd [24, 27]: below the threshold; pKd [25, 27]: below the threshold
